From the supplement of paper PMC10724198
± gives the standard deviation of the averaged measurements.

What follows are sequences tested on Saccharomyces cerevisiae (assay: protein stability index of tFT-peptide fusion (C-terminal peptide) (PSI (0-1 scale)); higher = more stable (slower turnover)). Settings: genetic background: wild type; temperature: 30 C.
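Note: PSI is a weighted mean of sequencing reads over stability bins, variants kept only with over 10 reads, mCherry proximal and sfGFP distal, peptide attached via GGGS linker.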

| Sequence | protein stability index |
| --- | --- |
| PPALSLPAPLLP | 0.6592 ± 0.0039 |
| PPAPPARFPSPP | 0.711 ± 0.068 |
| PPAPPPLPPPTH | 0.633 ± 0.049 |
| PPAPPPLSPSPI | 0.832 ± 0.04 |
| PPAPRPRSPSPL | 0.719 ± 0.0085 |
| PPAPRVSPPPPP | 0.712 ± 0.073 |
| PPAPSSLTASPF | 0.71 ± 0.08 |
| PPARLPLPPPSP | 0.753 ± 0.061 |
| PPARPLFPLPRL | 0.754 ± 0.077 |
| PPASSPRRPTPP | 0.675 ± 0.011 |
| PPDGRPPPLRLM | 0.679 ± 0.014 |
| PPDSPSPLPPPP | 0.681 ± 0.054 |
| PPFLSPLRPPSL | 0.781 ± 0.09 |
| PPFPARPRPHPV | 0.6623 ± 0.0056 |
| PPFPLACPPLLF | 0.657 ± 0.11 |
| PPFPPPPPPPLS | 0.714 ± 0.05 |
| PPFRPRPPPPSA | 0.812 ± 0.17 |
| PPFRRPPPDPQP | 0.7343 ± 0.0059 |
| PPFSTPFLPPSS | 0.727 ± 0.072 |
| PPFTLRPQVPTH | 0.664 ± 0.0097 |
| PPGQRGRRDRAA | 0.647 ± 0.015 |
| PPGSSPPPVLSL | 0.703 ± 0.022 |
| PPHGRKRRGKEP | 0.776 ± 0.16 |
| PPHHLPPGPPHP | 0.72 ± 0.078 |
| PPHLFLPSSMPF | 0.693 ± 0.015 |
| PPHPPPPSPALL | 0.74 ± 0.01 |

| Sequence | protein stability index |
| --- | --- |
| PPHPPPRLPPPP | 0.724 ± 0.043 |
| PPHRRTPQRRCP | 0.701 ± 0.013 |
| PPIPPSAPLCPP | 0.688 ± 0.014 |
| PPIPYIVPPSYT | 0.657 ± 0.015 |
| PPITKKITRNTA | 0.676 ± 0.014 |
| PPIWYAKHRPAP | 0.6904 ± 0.0069 |
| PPLCPPLQPPLI | 0.639 ± 0.02 |
| PPLFRPPASAPR | 0.715 ± 0.018 |
| PPLLPLPPRPLL | 0.728 ± 0.044 |
| PPLLPPPPQLLL | 0.679 ± 0.028 |
| PPLLPPPVPPVP | 0.727 ± 0.07 |
| PPLMLPSTPSSS | 0.704 ± 0.095 |
| PPLPAPGPIFLP | 0.652 ± 0.037 |
| PPLPGHPCLWPT | 0.649 ± 0.057 |
| PPLPLPGPDHHL | 0.731 ± 0.087 |
| PPLPLPPSRSPA | 0.686 ± 0.026 |
| PPLPLPSPRPPP | 0.619 ± 0.0092 |
| PPLPPAPPPPPH | 0.697 ± 0.056 |
| PPLPPLCRPLPP | 0.685 ± 0.1 |
| PPLPPLPSPSPP | 0.721 ± 0.092 |
| PPLPPPLRPPPS | 0.685 ± 0.026 |
| PPLPPPTSPPRP | 0.69 ± 0.038 |
| PPLPPSPSVSPR | 0.746 ± 0.021 |
| PPLPSPLCPQPP | 0.714 ± 0.032 |
| PPLQRFSYRPGR | 0.754 ± 0.069 |
| PPLSLPLCLSPL | 0.6838 ± 0.0035 |

| Sequence | protein stability index |
| --- | --- |
| PPPAPDRATIRR | 0.673 ± 0.068 |
| PPPAPFSPLPPP | 0.7184 ± 0.002 |
| PPPAPPPPPPLP | 0.7026 ± 0.0022 |
| PPPAPPPPPPPP | 0.693 ± 0.068 |
| PPPAPPPPPTFL | 0.688 ± 0.019 |
| PPPAPPSPLLSR | 0.685 ± 0.1 |
| PPPFPSPLPPPP | 0.678 ± 0.0097 |
| PPPHPLPRPLPT | 0.853 ± 0.051 |
| PPPHPPPRLPSP | 0.604 ± 0.078 |
| PPPHPTPPLTSP | 0.702 ± 0.058 |
| PPPHSPVPPSQS | 0.68 ± 0.022 |
| PPPLAPPSVPCS | 0.604 ± 0.053 |
| PPPLFLSPFPPR | 0.727 ± 0.015 |
| PPPLHPTTLPQP | 0.733 ± 0.017 |
| PPPLLPAPGSTI | 0.662 ± 0.0079 |
| PPPLLPASFHLP | 0.629 ± 0.0082 |
| PPPLPPPAPPPP | 0.658 ± 0.025 |
| PPPLPPPLPPPL | 0.705 ± 0.05 |
| PPPLPRHLRAPP | 0.689 ± 0.018 |
| PPPLPVFPRPPP | 0.682 ± 0.012 |
| PPPLSLLPAPPA | 0.6953 ± 0.0021 |
| PPPLSLSCPFRP | 0.712 ± 0.052 |
| PPPLSPSTSDHP | 0.652 ± 0.019 |
| PPPNPPPALPPL | 0.664 ± 0.047 |
| PPPPAAFFPRSP | 0.827 ± 0.11 |
| PPPPAPPVPLPL | 0.693 ± 0.016 |

| Sequence | protein stability index |
| --- | --- |
| PPPPASSFSPPR | 0.7366 ± 0.0054 |
| PPPPAVPPSPPP | 0.645 ± 0.012 |
| PPPPFSPAHLPH | 0.6993 ± 0.0042 |
| PPPPHYPHHTAS | 0.738 ± 0.029 |
| PPPPLSAPPFSS | 0.697 ± 0.051 |
| PPPPLYPQPPPT | 0.705 ± 0.025 |
| PPPPPFLPPTPP | 0.622 ± 0.041 |
| PPPPPLPLPLPS | 0.728 ± 0.066 |
| PPPPPLPPPSPF | 0.734 ± 0.06 |
| PPPPPPLPSLPR | 0.678 ± 0.089 |
| PPPPPPPAPPLP | 0.648 ± 0.044 |
| PPPPPPPHSPPS | 0.664 ± 0.035 |
| PPPPPPPLPPFT | 0.681 ± 0.015 |
| PPPPPPPPALSS | 0.7163 ± 0.0034 |
| PPPPPPPPHLLP | 0.658 ± 0.027 |
| PPPPPPPPPSSP | 0.701 ± 0.057 |
| PPPPPPPRALNL | 0.687 ± 0.038 |
| PPPPPPPTSRPP | 0.644 ± 0.03 |
| PPPPPPTPAPPP | 0.711 ± 0.044 |
| PPPPPQSRASSP | 0.738 ± 0.022 |
| PPPPPRPFLPPP | 0.654 ± 0.058 |
| PPPPPRPLPPLP | 0.695 ± 0.043 |
| PPPPPSPAPSLR | 0.723 ± 0.052 |
| PPPPPSSPPASP | 0.653 ± 0.03 |
| PPPPPSSPPPPA | 0.639 ± 0.099 |
| PPPPPTPHTPLL | 0.672 ± 0.031 |

| Sequence | protein stability index |
| --- | --- |
| PPPPPTPPHQPR | 0.79 ± 0.022 |
| PPPPPTPSTRTS | 0.667 ± 0.015 |
| PPPPPVSSPLVT | 0.657 ± 0.048 |
| PPPPRATLPRPP | 0.681 ± 0.044 |
| PPPPRPSPPSLP | 0.676 ± 0.0058 |
| PPPPSCPHSAPL | 0.637 ± 0.008 |
| PPPPSHPSPPPP | 0.654 ± 0.021 |
| PPPPSLPTPRPP | 0.662 ± 0.012 |
| PPPPSPPPILPP | 0.64 ± 0.01 |
| PPPPSRPPSPGP | 0.6691 ± 0.00067 |
| PPPPSVCPRFPI | 0.785 ± 0.12 |
| PPPPTPLPPPDP | 0.68 ± 0.035 |
| PPPPTPRYRAPL | 0.671 ± 0.057 |
| PPPPVLPPPLPP | 0.7 ± 0.012 |
| PPPPVPRPRLPI | 0.648 ± 0.099 |
| PPPPYPLPASCL | 0.653 ± 0.058 |
| PPPPYPSTRHSP | 0.6564 ± 0.0021 |
| PPPQPPPSPPPP | 0.67 ± 0.097 |
| PPPQTRPPTPTP | 0.741 ± 0.081 |
| PPPRARPHAPPL | 0.653 ± 0.017 |
| PPPRLNPLPPAC | 0.731 ± 0.066 |
| PPPRLPSRPPPP | 0.716 ± 0.032 |
| PPPRLRSPHGLF | 0.718 ± 0.08 |
| PPPRPPLPPPLP | 0.692 ± 0.032 |
| PPPRPPPPPPVP | 0.707 ± 0.041 |
| PPPRPRLSRLLH | 0.6114 ± 0.0012 |

| Sequence | protein stability index |
| --- | --- |
| PPPRSLPPISPV | 0.623 ± 0.02 |
| PPPRTFSSSFHV | 0.6366 ± 0.0043 |
| PPPSHLHLPSPA | 0.53 ± 0.0095 |
| PPPSPPAQSLRS | 0.759 ± 0.079 |
| PPPSPPSGALTP | 0.763 ± 0.053 |
| PPPSPSPPPSSP | 0.698 ± 0.039 |
| PPPSPSTPKTTL | 0.6943 ± 0.0068 |
| PPPSRPSHPPPA | 0.628 ± 0.015 |
| PPPSSPPSPVIR | 0.694 ± 0.056 |
| PPPTLPPPPPAL | 0.711 ± 0.033 |
| PPPTLPSPPSPP | 0.712 ± 0.011 |
| PPPTLYPPPFPP | 0.659 ± 0.027 |
| PPPTRAPPPKPG | 0.621 ± 0.028 |
| PPPVPPRFAVRP | 0.6678 ± 0.0015 |
| PPPWPSLCLPPS | 0.706 ± 0.048 |
| PPPYAPLPPTWP | 0.726 ± 0.023 |
| PPPYPFPHLSPL | 0.713 ± 0.029 |
| PPPYPSYPPRPN | 0.724 ± 0.032 |
| PPQHRNPAVRRH | 0.667 ± 0.023 |
| PPRAPLPRPPQP | 0.656 ± 0.011 |
| PPRAPSPLPPPL | 0.704 ± 0.027 |
| PPRLDLPFPLSR | 0.747 ± 0.08 |
| PPRPDRSSLPPF | 0.712 ± 0.037 |
| PPRPLTPAPSDT | 0.682 ± 0.014 |
| PPRPPCSPLPPR | 0.678 ± 0.052 |
| PPRPPPPPAHPP | 0.557 ± 0.029 |

| Sequence | protein stability index |
| --- | --- |
| PPRPPPPPSPPL | 0.745 ± 0.027 |
| PPRPPPSSPHLV | 0.698 ± 0.023 |
| PPRPPRPPPRTP | 0.694 ± 0.022 |
| PPRPPSPAPPPP | 0.687 ± 0.042 |
| PPRPRRPLHRSS | 0.664 ± 0.011 |
| PPRQPFPPILPS | 0.677 ± 0.046 |
| PPRQPLSLLLPL | 0.6468 ± 0.0016 |
| PPRRPPRPPPPA | 0.701 ± 0.064 |
| PPRRSSLSPPLA | 0.6562 ± 0.0027 |
| PPRSHKPPQMQT | 0.663 ± 0.0082 |
| PPRSPRPPPSRP | 0.72 ± 0.1 |
| PPRTMTLSAPLT | 0.708 ± 0.02 |
| PPSALPHPPLPP | 0.718 ± 0.028 |
| PPSARLPPPPPR | 0.789 ± 0.12 |
| PPSHIPASGTKR | 0.716 ± 0.041 |
| PPSHPLTIRPPL | 0.663 ± 0.014 |
| PPSIEAAQPPYF | 0.681 ± 0.015 |
| PPSLFSSTQLLF | 0.7095 ± 0.0067 |
| PPSLPLPAPPPP | 0.66 ± 0.063 |
| PPSLPPPSPAPL | 0.682 ± 0.03 |
| PPSLPPRPRPPS | 0.6411 ± 0.0049 |
| PPSPAFTTHLPP | 0.576 ± 0.0064 |
| PPSPALPPSLPV | 0.682 ± 0.032 |
| PPSPAPSPPRPL | 0.702 ± 0.021 |
| PPSPHHPPPPAL | 0.753 ± 0.0082 |
| PPSPPPARPSPA | 0.667 ± 0.041 |

| Sequence | protein stability index |
| --- | --- |
| PPSPPPPPAHPP | 0.597 ± 0.01 |
| PPSPPPPPPPPP | 0.6847 ± 0.0032 |
| PPSPPPPPRPPP | 0.583 ± 0.019 |
| PPSPPPPTGLCL | 0.745 ± 0.078 |
| PPSPRHPAPQPR | 0.679 ± 0.026 |
| PPSPRPPPPSPS | 0.719 ± 0.1 |
| PPSPSLPPPPRS | 0.699 ± 0.055 |
| PPSRTPFLPPFR | 0.691 ± 0.032 |
| PPSSPPFLPSRP | 0.677 ± 0.031 |
| PPSSPPPPLPPS | 0.712 ± 0.035 |
| PPSVILTSASSR | 0.721 ± 0.011 |
| PPTHLLRTHPPA | 0.68368 ± 0.00032 |
| PPTLPPPRTLPL | 0.6984 ± 0.0052 |
| PPTPPPPSLTPP | 0.746 ± 0.027 |
| PPTPPRLHRSPP | 0.69 ± 0.11 |
| PPTPPRPPPRTT | 0.69 ± 0.028 |
| PPTPRALFPPLP | 0.745 ± 0.049 |
| PPTTPHPTPTAP | 0.689 ± 0.033 |
| PPVPPPDLCSAL | 0.653 ± 0.068 |
| PPVSPPSPRLPL | 0.7329 ± 0.0049 |
